Data as given in patent publication US20090269779.

B1: activated human recombinant MMP-9 (protein)
chain: MRTPRCGVPDLGRFQTFEGDLKWHHHNITYWIQNYSEDLPRAVIDDAFARAFALWSAVTPLTFTRVYSRDADIVIQFGVAEHGDGYPFDGKDGLLAHAFPPGPGIQGDAHFDDDELWSLGKGVVVPTRFGNADGAACHFPFIFEGRSYSACTTDGRSDGLPWCSTTANYDTDDRFGFCPSERLYTQDGNADGKPCQFPFIFQGQSYSACTTDGRSDGYRWCATTANYDRDKLFGFCPTRADSTVMGGNSAGELCVFPFTFLGKEYSTCTSEGRGDGRLWCATTSNFDSDKKWGFCPDQGYSLFLVAAHEFGHALGLDHSSVPEALMYPMYRFTEGPPLHKDDVNGIRHLYGPRPEPEPRPPTTTTPQPTAPPTVCPTGPPTVHPSERPTAGPTGPPSAGPTGPPTAGPSTATTVPLSPVDDACNVNIFDAIAEIGNQLYLFKDGKYWRFSEGRGSRPQGPFLIADKWPALPRKLDSVFEERLSKKLFFFSGRQVWVYTGASVLGPRRLDKLGLGADVAQVTGALRSGRGKMLLFSGRRLWRFDVKAQMVDPRSASEVDRMFPGVPLDTHDVFQYREKAYFCQDRFYWRVSSRSELNQVDQVGYVTYDILQCPED
B2: human recombinant pro-MMP-2 (protein)
chain: APSPIIKFPGDVAPKTDKELAVQYLNTFYGCPKESCNLFVLKDTLKKMQKFFGLPQTGDLDQNTIETMRKPRCGNPDVANYNFFPRKPKWDKNQITYRIIGYTPDLDPETVDDAFARAFQVWSDVTPLRFSRIHDGEADIMINFGRWEHGDGYPFDGKDGLLAHAFAPGTGVGGDSHFDDDELWTLGEGQVVRVKYGNADGEYCKFPFLFNGKEYNSCTDTGRSDGFLWCSTTYNFEKDGKYGFCPHEALFTMGGNAEGQPCKFPFRFQGTSYDSCTTEGRTDGYRWCGTTEDYDRDKKYGFCPETAMSTVGGNSEGAPCVFPFTFLGNKYESCTSAGRSDGKMWCATTANYDDDRKWGFCPDQGYSLFLVAAHEFGHAMGLEHSQDPGALMAPIYTYTKNFRLSQDDIKGIQELYGASPDIDLGTGPTPTLGPVTPEICKQDIVFDGIAQIRGEIFFFKDRFIWRTVTPRDKPMGPLLVATFWPELPEKIDAVYEAPQEEKAVFFAGNEYWIYSASTLERGYPKPLTSLGLPPDVQRVDAAFNWSKNKKTYIFAGDKFWRYNEVKKKMDPGFPKLIADAWNAIPDNLDAVVDLQGGGHSYFFKGAYYLKLENQSLKSVKFGSIKSDWLGC
B3: human recombinant pro-MMP-9 (protein)
chain: APRQRQSTLVLFPGDLRTNLTDRQLAEEYLYRYGYTRVAEMRGESKSLGPALLLLQKQLSLPETGELDSATLKAMRTPRCGVPDLGRFQTFEGDLKWHHHNITYWIQNYSEDLPRAVIDDAFARAFALWSAVTPLTFTRVYSRDADIVIQFGVAEHGDGYPFDGKDGLLAHAFPPGPGIQGDAHFDDDELWSLGKGVVVPTRFGNADGAACHFPFIFEGRSYSACTTDGRSDGLPWCSTTANYDTDDRFGFCPSERLYTQDGNADGKPCQFPFIFQGQSYSACTTDGRSDGYRWCATTANYDRDKLFGFCPTRADSTVMGGNSAGELCVFPFTFLGKEYSTCTSEGRGDGRLWCATTSNFDSDKKWGFCPDQGYSLFLVAAHEFGHALGLDHSSVPEALMYPMYRFTEGPPLHKDDVNGIRHLYGPRPEPEPRPPTTTTPQPTAPPTVCPTGPPTVHPSERPTAGPTGPPSAGPTGPPTAGPSTATTVPLSPVDDACNVNIFDAIAEIGNQLYLFKDGKYWRFSEGRGSRPQGPFLIADKWPALPRKLDSVFEERLSKKLFFFSGRQVWVYTGASVLGPRRLDKLGLGADVAQVTGALRSGRGKMLLFSGRRLWRFDVKAQMVDPRSASEVDRMFPGVPLDTHDVFQYREKAYFCQDRFYWRVSSRSELNQVDQVGYVTYDILQCPED
B4: activated human recombinant MMP-2 (protein)
chain: YNFFPRKPKWDKNQITYRIIGYTPDLDPETVDDAFARAFQVWSDVTPLRFSRIHDGEADIMINFGRWEHGDGYPFDGKDGLLAHAFAPGTGVGGDSHFDDDELWTLGEGQVVRVKYGNADGEYCKFPFLFNGKEYNSCTDTGRSDGFLWCSTTYNFEKDGKYGFCPHEALFTMGGNAEGQPCKFPFRFQGTSYDSCTTEGRTDGYRWCGTTEDYDRDKKYGFCPETAMSTVGGNSEGAPCVFPFTFLGNKYESCTSAGRSDGKMWCATTANYDDDRKWGFCPDQGYSLFLVAAHEFGHAMGLEHSQDPGALMAPIYTYTKNFRLSQDDIKGIQELYGASPDIDLGTGPTPTLGPVTPEICKQDIVFDGIAQIRGEIFFFKDRFIWRTVTPRDKPMGPLLVATFWPELPEKIDAVYEAPQEEKAVFFAGNEYWIYSASTLERGYPKPLTSLGLPPDVQRVDAAFNWSKNKKTYIFAGDKFWRYNEVKKKMDPGFPKLIADAWNAIPDNLDAVVDLQGGGHSYFFKGAYYLKLENQSLKSVKFGSIKSDWLGC

Tests used:
[1] = target: galectin-3 A33G mutant, P17931
[2] = target: galectin-3 H64P mutant, P17931
[3] = target: galectin-3 A33G and H64P double mutant, P17931
[4] = target: human wild type galectin-3, P17931
human wild type galectin-3, P17931, sequence (P17931 whole entry): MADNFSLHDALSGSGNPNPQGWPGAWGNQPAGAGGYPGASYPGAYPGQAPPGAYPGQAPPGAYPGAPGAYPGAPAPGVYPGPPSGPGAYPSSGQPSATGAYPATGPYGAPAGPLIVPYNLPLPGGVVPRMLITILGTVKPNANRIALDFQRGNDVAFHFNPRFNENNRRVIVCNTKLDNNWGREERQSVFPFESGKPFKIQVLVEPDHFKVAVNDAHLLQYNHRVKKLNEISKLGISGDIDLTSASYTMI

galectin-3 A33G mutant, P17931, sequence (P17931 whole entry A33G): as the sequence (P17931 whole entry) above, with A33G counted along it
galectin-3 A33G and H64P double mutant, P17931, sequence (P17931 whole entry, looked up, stated change not applied): as the sequence (P17931 whole entry) above
galectin-3 H64P mutant, P17931, sequence (P17931 whole entry, looked up, stated change not applied): as the sequence (P17931 whole entry) above

Protein | cleavage of recombinant galectin-3 (Western blot) [1] | cleavage of recombinant galectin-3 (Western blot) [2] | cleavage of recombinant galectin-3 (Western blot) [3] | cleavage of recombinant galectin-3 (Western blot) [4]
B1 | Wild type and A33G galectin-3 produced a polypeptide of ~22 kDa consistent with cleavage at Ala62-Tyr63 | MMP-9 did not cleave the H64P mutant | Double mutation at A33G and H64P showed complete resistance to cleavage by both MMP-2 and MMP-9 | Wild type and A33G galectin-3 produced a polypeptide of ~22 kDa consistent with cleavage at Ala62-Tyr63
B2 | – | – | – | The cleavage products were not seen when galectin-3 was incubated alone or with pro-MMPs
B3 | – | – | – | The cleavage products were not seen when galectin-3 was incubated alone or with pro-MMPs
B4 | Wild type and A33G galectin-3 produced a polypeptide of ~22 kDa consistent with cleavage at Ala62-Tyr63 | The H64P mutant produced a ~27-kDa polypeptide upon incubation with MMP-2 indicating that it is cleaved at Gly32-Ala33 | Double mutation at A33G and H64P showed complete resistance to cleavage by both MMP-2 and MMP-9 | Wild type and A33G galectin-3 produced a polypeptide of ~22 kDa consistent with cleavage at Ala62-Tyr63
